The target of the assay is Pro-LC3B, Q9GZQ8. As to the kind of experiment: fluorescence anisotropy. To be noted: chain shown with the change; FITC-labeled peptide 1 μM; read at the highest Pro-LC3B concentration plotted (about 50 μM); parent: est. 0.071; read off a plot. (In general: Polarisation of emitted light reports the rotation of a fluorescent probe.)

Consider VHDRNANSAVMAGTFNLPSD [BAG6 LIR1 peptide (residues 124-143), P46379-2 Y132A; V135A], for which the response is -0.002.

The values above are taken from PMC7674511.
